Starred links: 1 amine or outer side, 2 acyl side, 3 side chain; linkers in the order of their positions; H or OH if unused. Positions of bridges follow the written chain, without caps; N, C: chain ends. *: point of attachment. X1 = (S)‑4‑Carboxy‑4‑(19-carboxynonadecanoylamino)butyryl, O=C(O)CCCCCCCCCCCCCCCCCCC(=O)N[C@@H](CCC(=O)*)C(=O)O; C20 diacid = O=C(O)CCCCCCCCCCCCCCCCCCC(=O)*; γGlu = O=C(O)[C@H](CCC(=O)[*:2])N[*:1]

5 molecules from patent publication US20130005646A1 (Novo Nordisk, published 2013) can be followed below.

Assay [1] deals with T1, human amylin 3(a) receptor (human calcitonin receptor + RAMP-3) (human, UniProt P30988 25-474; O60896 24-148).
T1 sequence (looked up) 1: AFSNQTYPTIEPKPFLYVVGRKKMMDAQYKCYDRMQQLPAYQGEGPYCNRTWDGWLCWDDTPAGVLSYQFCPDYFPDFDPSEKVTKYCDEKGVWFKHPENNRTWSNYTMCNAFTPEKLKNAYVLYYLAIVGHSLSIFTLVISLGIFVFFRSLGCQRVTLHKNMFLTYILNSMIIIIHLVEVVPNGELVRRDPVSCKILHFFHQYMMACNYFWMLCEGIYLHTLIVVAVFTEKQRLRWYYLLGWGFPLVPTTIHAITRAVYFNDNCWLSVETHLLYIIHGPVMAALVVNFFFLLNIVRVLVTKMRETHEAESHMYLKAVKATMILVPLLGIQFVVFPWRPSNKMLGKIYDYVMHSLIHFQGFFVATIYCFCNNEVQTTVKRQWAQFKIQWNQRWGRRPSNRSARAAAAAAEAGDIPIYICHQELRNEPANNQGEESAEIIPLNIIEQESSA
T1 sequence (looked up) 2: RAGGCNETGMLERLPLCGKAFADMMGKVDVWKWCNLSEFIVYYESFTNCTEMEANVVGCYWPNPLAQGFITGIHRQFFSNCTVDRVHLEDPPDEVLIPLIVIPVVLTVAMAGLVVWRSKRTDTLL
Briefly: cell-based or functional assay.

Assay [2] deals with T2, human calcitonin (a) receptor (human, UniProt P30988 25-474).
T2 sequence (looked up): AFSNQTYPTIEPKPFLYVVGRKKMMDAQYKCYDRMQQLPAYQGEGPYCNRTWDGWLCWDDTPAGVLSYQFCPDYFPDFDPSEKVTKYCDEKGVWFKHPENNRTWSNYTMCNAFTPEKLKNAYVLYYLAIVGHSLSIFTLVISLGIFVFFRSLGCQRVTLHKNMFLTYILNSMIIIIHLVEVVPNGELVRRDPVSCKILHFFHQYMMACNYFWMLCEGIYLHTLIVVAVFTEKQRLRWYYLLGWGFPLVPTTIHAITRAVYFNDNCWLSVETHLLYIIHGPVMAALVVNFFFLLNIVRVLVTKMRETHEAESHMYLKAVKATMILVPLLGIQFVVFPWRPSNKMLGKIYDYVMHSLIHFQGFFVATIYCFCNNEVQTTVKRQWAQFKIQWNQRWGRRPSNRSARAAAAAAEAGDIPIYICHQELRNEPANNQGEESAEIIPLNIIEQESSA
Briefly: cell-based or functional assay.

B1: N-alpha-[(S)-4-Carboxy-4-(19-carboxynonadecanoylamino)butyryl]-[des1,Gly3,Glu14,His17,Arg18,Gln21,Gln22,Glu31,Gly35]-pramlintide (peptide)
peptide: {C20 diacid-γGlu}-CGTATCATQRLAEFLHRSSQQFGPILPPTEVGSGTY-NH2
modifications: disulfide 1-6
SMILES: CC[C@H](C)[C@H](NC(=O)[C@@H]1CCCN1C(=O)CNC(=O)[C@H](Cc1ccccc1)NC(=O)[C@H](CCC(N)=O)NC(=O)[C@H](CCC(N)=O)NC(=O)[C@H](CO)NC(=O)[C@H](CO)NC(=O)[C@H](CCCNC(=N)N)NC(=O)[C@H](Cc1c[nH]cn1)NC(=O)[C@H](CC(C)C)NC(=O)[C@H](Cc1ccccc1)NC(=O)[C@H](CCC(=O)O)NC(=O)[C@H](C)NC(=O)[C@H](CC(C)C)NC(=O)[C@H](CCCNC(=N)N)NC(=O)[C@H](CCC(N)=O)NC(=O)[C@@H](NC(=O)[C@H](C)NC(=O)[C@@H]1CSSC[C@H](NC(=O)CC[C@H](NC(=O)CCCCCCCCCCCCCCCCCCC(=O)O)C(=O)O)C(=O)NCC(=O)N[C@@H]([C@@H](C)O)C(=O)N[C@@H](C)C(=O)N[C@@H]([C@@H](C)O)C(=O)N1)[C@@H](C)O)C(=O)N[C@@H](CC(C)C)C(=O)N1CCC[C@H]1C(=O)N1CCC[C@H]1C(=O)N[C@H](C(=O)N[C@@H](CCC(=O)O)C(=O)N[C@H](C(=O)NCC(=O)N[C@@H](CO)C(=O)NCC(=O)N[C@H](C(=O)N[C@@H](Cc1ccc(O)cc1)C(N)=O)[C@@H](C)O)C(C)C)[C@@H](C)O
Consider B1, for which the “Amylin receptor human EC50” value in assay [1] turned out to be 0.253 nM. For the same molecule, the “CTa receptor human EC50” value in assay [2] came out at 0.284 nM.

B2: N-alpha-[(S)-4-Carboxy-4-(19-carboxynonadecanoylamino)butyryl]-[His1,Glu14,His17,Arg18,Glu22,Ala25,Arg26,Ser28,Ser29]-pramlintide (peptide)
peptide: X1-HCNTATCATQRLAEFLHRSSNEFGARLSSTNVGSNTY-NH2
modifications: disulfide 2-7
SMILES: CC(C)C[C@H](NC(=O)[C@H](CCCNC(=N)N)NC(=O)[C@H](CCC(N)=O)NC(=O)[C@@H](NC(=O)[C@H](C)NC(=O)[C@@H]1CSSC[C@H](NC(=O)[C@H](Cc2c[nH]cn2)NC(=O)CC[C@H](NC(=O)CCCCCCCCCCCCCCCCCCC(=O)O)C(=O)O)C(=O)N[C@@H](CC(N)=O)C(=O)N[C@@H]([C@@H](C)O)C(=O)N[C@@H](C)C(=O)N[C@@H]([C@@H](C)O)C(=O)N1)[C@@H](C)O)C(=O)N[C@@H](C)C(=O)N[C@@H](CCC(=O)O)C(=O)N[C@@H](Cc1ccccc1)C(=O)N[C@@H](CC(C)C)C(=O)N[C@@H](Cc1c[nH]cn1)C(=O)N[C@@H](CCCNC(=N)N)C(=O)N[C@@H](CO)C(=O)N[C@@H](CO)C(=O)N[C@@H](CC(N)=O)C(=O)N[C@@H](CCC(=O)O)C(=O)N[C@@H](Cc1ccccc1)C(=O)NCC(=O)N[C@@H](C)C(=O)N[C@@H](CCCNC(=N)N)C(=O)N[C@@H](CC(C)C)C(=O)N[C@@H](CO)C(=O)N[C@@H](CO)C(=O)N[C@H](C(=O)N[C@@H](CC(N)=O)C(=O)N[C@H](C(=O)NCC(=O)N[C@@H](CO)C(=O)N[C@@H](CC(N)=O)C(=O)N[C@H](C(=O)N[C@@H](Cc1ccc(O)cc1)C(N)=O)[C@@H](C)O)C(C)C)[C@@H](C)O
On to B2, for which, in assay [1], the “Amylin receptor human EC50” value came to 0.127 nM. The “CTa receptor human EC50” value in assay [2] was 0.279 nM.

B3: N-alpha-[(S)-4-Carboxy-4-(19-carboxynonadecanoylamino)butyryl]-[His1,Glu14,His17,Arg18,Glu25,Ser28,Arg29]-pramlintide (peptide)
peptide: {C20 diacid-γGlu}-HCNTATCATQRLAEFLHRSSNNFGEILSRTNVGSNTY-NH2
modifications: disulfide 2-7
SMILES: CC[C@H](C)[C@H](NC(=O)[C@H](CCC(=O)O)NC(=O)CNC(=O)[C@H](Cc1ccccc1)NC(=O)[C@H](CC(N)=O)NC(=O)[C@H](CC(N)=O)NC(=O)[C@H](CO)NC(=O)[C@H](CO)NC(=O)[C@H](CCCNC(=N)N)NC(=O)[C@H](Cc1c[nH]cn1)NC(=O)[C@H](CC(C)C)NC(=O)[C@H](Cc1ccccc1)NC(=O)[C@H](CCC(=O)O)NC(=O)[C@H](C)NC(=O)[C@H](CC(C)C)NC(=O)[C@H](CCCNC(=N)N)NC(=O)[C@H](CCC(N)=O)NC(=O)[C@@H](NC(=O)[C@H](C)NC(=O)[C@@H]1CSSC[C@H](NC(=O)[C@H](Cc2c[nH]cn2)NC(=O)CC[C@H](NC(=O)CCCCCCCCCCCCCCCCCCC(=O)O)C(=O)O)C(=O)N[C@@H](CC(N)=O)C(=O)N[C@@H]([C@@H](C)O)C(=O)N[C@@H](C)C(=O)N[C@@H]([C@@H](C)O)C(=O)N1)[C@@H](C)O)C(=O)N[C@@H](CC(C)C)C(=O)N[C@@H](CO)C(=O)N[C@@H](CCCNC(=N)N)C(=O)N[C@H](C(=O)N[C@@H](CC(N)=O)C(=O)N[C@H](C(=O)NCC(=O)N[C@@H](CO)C(=O)N[C@@H](CC(N)=O)C(=O)N[C@H](C(=O)N[C@@H](Cc1ccc(O)cc1)C(N)=O)[C@@H](C)O)C(C)C)[C@@H](C)O
Turning to B3, the “Amylin receptor human EC50” value in assay [1] came out at 0.0779 nM. For the same molecule, the “CTa receptor human EC50” value in assay [2] amounted to 0.131 nM.

B4: N-alpha-[(S)-4-Carboxy-4-(19-carboxynonadecanoylamino)butyryl]-[Glu1,Glu14,His17,Arg18]-pramlintide (peptide)
peptide: {C20 diacid-γGlu}-ECNTATCATQRLAEFLHRSSNNFGPILPPTNVGSNTY-NH2
modifications: disulfide 2-7
SMILES: CC[C@H](C)[C@H](NC(=O)[C@@H]1CCCN1C(=O)CNC(=O)[C@H](Cc1ccccc1)NC(=O)[C@H](CC(N)=O)NC(=O)[C@H](CC(N)=O)NC(=O)[C@H](CO)NC(=O)[C@H](CO)NC(=O)[C@H](CCCNC(=N)N)NC(=O)[C@H](Cc1c[nH]cn1)NC(=O)[C@H](CC(C)C)NC(=O)[C@H](Cc1ccccc1)NC(=O)[C@H](CCC(=O)O)NC(=O)[C@H](C)NC(=O)[C@H](CC(C)C)NC(=O)[C@H](CCCNC(=N)N)NC(=O)[C@H](CCC(N)=O)NC(=O)[C@@H](NC(=O)[C@H](C)NC(=O)[C@@H]1CSSC[C@H](NC(=O)[C@H](CCC(=O)O)NC(=O)CC[C@H](NC(=O)CCCCCCCCCCCCCCCCCCC(=O)O)C(=O)O)C(=O)N[C@@H](CC(N)=O)C(=O)N[C@@H]([C@@H](C)O)C(=O)N[C@@H](C)C(=O)N[C@@H]([C@@H](C)O)C(=O)N1)[C@@H](C)O)C(=O)N[C@@H](CC(C)C)C(=O)N1CCC[C@H]1C(=O)N1CCC[C@H]1C(=O)N[C@H](C(=O)N[C@@H](CC(N)=O)C(=O)N[C@H](C(=O)NCC(=O)N[C@@H](CO)C(=O)N[C@@H](CC(N)=O)C(=O)N[C@H](C(=O)N[C@@H](Cc1ccc(O)cc1)C(N)=O)[C@@H](C)O)C(C)C)[C@@H](C)O
Regarding B4, the “Amylin receptor human EC50” value in assay [1] stood at 0.353 nM. The “CTa receptor human EC50” value in assay [2] came out at 1.65 nM.

B5: N-alpha-[(S)-4-Carboxy-4-(19-carboxynonadecanoylamino)butyryl]-[His1,Glu14,His17,Arg18,Ala25,Pro26,Ser28,Ser29]-pramlintide (peptide)
peptide: X1-HCNTATCATQRLAEFLHRSSNNFGAPLSSTNVGSNTY-NH2
modifications: disulfide 2-7
SMILES: CC(C)C[C@H](NC(=O)[C@H](CCCNC(=N)N)NC(=O)[C@H](CCC(N)=O)NC(=O)[C@@H](NC(=O)[C@H](C)NC(=O)[C@@H]1CSSC[C@H](NC(=O)[C@H](Cc2c[nH]cn2)NC(=O)CC[C@H](NC(=O)CCCCCCCCCCCCCCCCCCC(=O)O)C(=O)O)C(=O)N[C@@H](CC(N)=O)C(=O)N[C@@H]([C@@H](C)O)C(=O)N[C@@H](C)C(=O)N[C@@H]([C@@H](C)O)C(=O)N1)[C@@H](C)O)C(=O)N[C@@H](C)C(=O)N[C@@H](CCC(=O)O)C(=O)N[C@@H](Cc1ccccc1)C(=O)N[C@@H](CC(C)C)C(=O)N[C@@H](Cc1c[nH]cn1)C(=O)N[C@@H](CCCNC(=N)N)C(=O)N[C@@H](CO)C(=O)N[C@@H](CO)C(=O)N[C@@H](CC(N)=O)C(=O)N[C@@H](CC(N)=O)C(=O)N[C@@H](Cc1ccccc1)C(=O)NCC(=O)N[C@@H](C)C(=O)N1CCC[C@H]1C(=O)N[C@@H](CC(C)C)C(=O)N[C@@H](CO)C(=O)N[C@@H](CO)C(=O)N[C@H](C(=O)N[C@@H](CC(N)=O)C(=O)N[C@H](C(=O)NCC(=O)N[C@@H](CO)C(=O)N[C@@H](CC(N)=O)C(=O)N[C@H](C(=O)N[C@@H](Cc1ccc(O)cc1)C(N)=O)[C@@H](C)O)C(C)C)[C@@H](C)O
Consider B5, for which the “Amylin receptor human EC50” value in assay [1] amounted to 0.115 nM. For the same molecule, the “CTa receptor human EC50” value in assay [2] was 0.24 nM.
